# Test results taken from patent US20110124565.
# System: FVIII L99 (B domain deleted FVIII with R372A and Val374 replaced by a 99 amino acid Gly/Ser linker)
substance,measurement,value
human activated Protein C,remaining FVIII activity (FXa generation test) after addition of human APC with or without protein S,FVIII L99 could be inactivated by human APC with or without Protein S
